Measurements reported in US20240181022A1, “AMURINS LYSINS, AND LYSIN-ANTIMICROBIAL PEPTIDE (AMP) CONSTRUCTS ACTIVE AGAINST GRAM-NEGATIVE BACTERIA” (priority 2021, published 2024).

System: A. baumannii
Assay: GN370 time-kill assay, A. baumannii
Assay type: cell-based, Acinetobacter baumannii
Conditions: for Log10 CFU/mL: A. baumannii ATCC BAA 747
Experimental: A kinetic analysis of GN370 bactericidal activity was performed using a time-kill assay format in which CFU reductions of each target organism (P. aeruginosa, K. pneumoniae, A. baumannii, E. coli, and E. cloacae) were measured over 24 hours at 37° C. […] Bactericidal activity was defined as CFU reductions of ≥3-log 10 CFU/mL as compared to the inoculum at the 24-hour time point.

B1: GN370: lysin-AMP construct, SEQ ID NO: 149: MIDR, FIRL and NPTH moieties N-terminal to GN202 lysin (protein)
chain: MIDRFIRLNPTHGPRRPRRPGRRAPVRTSQRGIDLIKSFEGLRLSAYQDSVGVWTIGYGTTRGVTRYMTITVEQAERMLSNDIQRFEPELDRLAKVPLNQNQWDALMSFVYNLGAANLASSTLLDLLNKGDYQGAADQFPHWVNAGGKRLDGLVKRRAAERALFLEPLS
modifications: GN370 lysin
Log10 CFU/mL (0.2x MIC, 1 hr): 3.8 Log10 CFU/mL
Log10 CFU/mL (0.2x MIC, 3 hr): 4.0 Log10 CFU/mL
Log10 CFU/mL (0.2x MIC, 24 hr): 5.8 Log10 CFU/mL
Log10 CFU/mL (1x MIC, 1 hr): 1.5 Log10 CFU/mL
Log10 CFU/mL (1x MIC, 3 hr): 1.5 Log10 CFU/mL
Log10 CFU/mL (1x MIC, 24 hr): 1.5 Log10 CFU/mL
Log10 CFU/mL (2x MIC, 1 hr): 1.5 Log10 CFU/mL
Log10 CFU/mL (2x MIC, 3 hr): 1.5 Log10 CFU/mL
Log10 CFU/mL (2x MIC, 24 hr): 1.5 Log10 CFU/mL
Log10 CFU/mL (5x MIC, 1 hr): 1.5 Log10 CFU/mL
Log10 CFU/mL (5x MIC, 3 hr): 1.5 Log10 CFU/mL
Log10 CFU/mL (5x MIC, 24 hr): 1.5 Log10 CFU/mL
concentration with bactericidal activity (≥3-log 10 CFU/mL reduction at 24 hours) (A. baumannii, 37° C.): ≥ 1 ×MIC
